Experimental findings from patent publication US20250154279A1 (BEIGENE, published 2025) are described below.

Where a chain is given by its changes, count along the chain named. Names and notes keep the numbering of the source.

Assay [1] addresses T1, human CD137 (recombinant antigen of the ELISA of Example 2 and the SPR of Example 3; construct not stated) (human, UniProt Q07011 24-186, limits assumed).
T1 construct: also called huCD137
Kind of assay: SPR. For orientation: Surface plasmon resonance follows binding to a sensor surface in real time, without labels.

Assay [2] has as its target T2, human CD137 over-expressed on HuT78 cells (HuT78/CD137) (human, UniProt Q07011 24-255).
T2 construct: also called Hut78/huCD137; native CD137
Kind of assay: flow cytometry on live HuT78/CD137 cells. How it is done: To evaluate the binding activity of anti-CD137 antibody to bind native CD137 on live cells, HuT78 cells were engineered to over-express human CD137. Live HuT78/CD137 cells were seeded in a 96-well plate, and were incubated with a series of dilutions of anti-CD137 antibody. Goat anti-Human IgG was used as secondary antibody to detect antibody binding to the cell surface. EC₅₀ values for dose-dependent binding to human native CD137 were determined by fitting the dose-response data to the four-parameter logistic model with GraphPad Prism™. The humanized VHHs retained sub-nanomolar binding affinity to native CD137.

In assay [3] the target is T1, human CD137 (recombinant antigen of the …). Kind of assay: SPR, antibody captured on anti-human Fc surface, Test 1. An excerpt: (§1) For affinity determination, antibodies were captured by anti-human Fe surface, and used in the affinity—assay based on surface plasmon resonance (SPR) technology.
For assay [4] the target is unchanged. Kind of assay: SPR, antibody captured on anti-human Fc surface, Test 2.
From the text: as §1

The target is the same in assay [5]. Kind of assay: SPR. This is another data set of the same source.
Assay [6] concerns the target T3, human GPC3 expressed on HepG2 cells (human, UniProt P51654 25-554).
T3 construct: also called native huGPC3; native GPC3
Kind of assay: flow cytometry on HepG2 cells. How it is done:
(§2) Briefly, anti-kappa antibody was immobilized on an activated CM5 biosensor chip (Cat.: BR100839, GE Life Sciences). […] Then a serial dilution (6.0 nM to 2150 nM) of human CD137 ECD-mIgG2a or huGPC3-His were flowed over the chip surface and changes in surface plasmon resonance signals were analyzed to calculate the association rates (kₒₙ) and dissociation rates (koff) by using the one-to-one Langmuir binding model (BIA Evaluation Software, GE Life Sciences). The equilibrium dissociation constant (KD) was calculated as the ratio koff/kₒₙ. […] Goat anti-Human IgG was used as secondary antibody to detect antibody binding to the cell surface. EC₅₀ values for dose-dependent binding to human native CD137 were determined by fitting the dose-response data to the four-parameter logistic model with GraphPad Prism™. […] Goat anti-Human IgG was used as secondary antibody to detect antibody binding to the cell surface. EC₅₀ values for dose-dependent binding to human native GPC3 were determined by fitting the dose-response data to the four-parameter logistic model with GraphPad Prism™.
Background: Flow cytometry measures light scatter and fluorescence of single cells or particles in a stream.

The target of assay [7] is T2, human CD137 over-expressed on HuT78 …. Kind of assay: flow cytometry on live Hut78/huCD137 cells. Here is the method:
as §2

Assay [8] addresses T4, huGPC3-His (human, UniProt P51654 25-559, limits assumed).
T4 construct: not shown: His tag
Kind of assay: SPR (BIAcore T-200), BE-774 captured by anti-kappa antibody, huGPC3-His flowed over. Here is the method:
as §2

Assay [9] concerns the target T5, human CD137 ECD-mIgG2a (human).
T5 construct: also called huCD137
Kind of assay: SPR (BIAcore T-200), BE-774 captured by anti-kappa antibody, human CD137 ECD-mIgG2a flowed over. How it is done:
as §2

T2 sequence (Q07011 24-255 limits assumed): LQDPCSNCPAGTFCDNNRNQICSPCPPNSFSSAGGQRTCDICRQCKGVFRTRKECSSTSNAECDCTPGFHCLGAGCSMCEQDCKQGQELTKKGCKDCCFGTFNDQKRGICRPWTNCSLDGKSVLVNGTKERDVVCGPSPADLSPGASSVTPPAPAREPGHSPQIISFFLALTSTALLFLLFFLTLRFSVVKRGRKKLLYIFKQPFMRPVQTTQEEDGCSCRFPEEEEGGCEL
T4 sequence (P51654 25-559 limits assumed): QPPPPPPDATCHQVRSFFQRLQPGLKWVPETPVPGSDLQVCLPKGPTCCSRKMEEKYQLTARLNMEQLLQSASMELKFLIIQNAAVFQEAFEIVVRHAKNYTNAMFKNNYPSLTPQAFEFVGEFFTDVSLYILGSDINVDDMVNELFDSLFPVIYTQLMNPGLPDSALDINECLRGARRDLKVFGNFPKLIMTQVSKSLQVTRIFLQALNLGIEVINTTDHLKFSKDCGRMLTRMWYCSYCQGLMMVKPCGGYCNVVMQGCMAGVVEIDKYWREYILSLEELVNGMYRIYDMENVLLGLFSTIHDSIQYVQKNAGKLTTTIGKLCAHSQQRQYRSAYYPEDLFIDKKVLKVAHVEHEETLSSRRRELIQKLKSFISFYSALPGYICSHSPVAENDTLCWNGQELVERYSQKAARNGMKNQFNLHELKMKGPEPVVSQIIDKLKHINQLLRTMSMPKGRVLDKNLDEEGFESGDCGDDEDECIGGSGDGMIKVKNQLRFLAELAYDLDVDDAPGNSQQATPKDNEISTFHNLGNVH
T3 sequence (P51654 25-554 limits assumed): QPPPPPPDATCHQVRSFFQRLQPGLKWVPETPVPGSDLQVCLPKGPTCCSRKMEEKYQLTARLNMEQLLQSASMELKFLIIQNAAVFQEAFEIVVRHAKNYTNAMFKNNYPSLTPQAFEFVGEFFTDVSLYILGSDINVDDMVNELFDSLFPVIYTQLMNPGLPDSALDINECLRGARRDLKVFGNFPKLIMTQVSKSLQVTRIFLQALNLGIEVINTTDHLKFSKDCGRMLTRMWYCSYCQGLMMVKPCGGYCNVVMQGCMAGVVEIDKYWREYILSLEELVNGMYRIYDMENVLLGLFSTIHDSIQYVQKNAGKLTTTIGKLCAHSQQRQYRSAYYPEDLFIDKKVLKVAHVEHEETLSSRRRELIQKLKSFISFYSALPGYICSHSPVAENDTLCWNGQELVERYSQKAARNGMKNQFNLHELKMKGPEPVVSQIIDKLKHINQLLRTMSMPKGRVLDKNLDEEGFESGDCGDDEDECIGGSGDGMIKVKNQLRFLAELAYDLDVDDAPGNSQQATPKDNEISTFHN

B1: BGA-9612 (chimeric Fc-VHH, as compared with the humanized VHHs in Examples 3-4) (VHH)
chain: EPKSSDKTHTCPPCPAPPAAGPSVFLFPPKPKDTLMISRTPEVTCVVVDVSHEDPEVKFNWYVDGVEVHNAKTKPREEQYNSTYRVVSVLTVLHQDWLNGKEYKCKVSNKALAAPIEKTISKAKGQPREPQVYTLPPSREEMTKNQVSLTCLVKGFYPSDIAVEWESNGQPENNYKTTPPVLDSDGSFFLYSKLTVDKSRWQQGNVFSCSVMHEALHNHYTQKSLSLSPGKGGGGSQVQLVESGGGTVQPGDSLRLSCAASGRTFDNYAVGWFRQAPGKERQYVGTYWSGYAHYGDFENNRFTISRDNAKNTVYLQMDNLKPEDTAVYYCAISLKYPMATVTPDYQGQGTQVTVSS
As a reminder, the Kd is the free concentration of one partner at which half of the binding sites on the other are occupied at equilibrium, for simple one-to-one binding. What is called koff is the first-order rate constant of dissociation. For orientation: kon means the rate constant with which the complex forms. By EC50 is commonly meant the concentration at which the effect is half-maximal. The low end stands for an effect from little substance, the high end for a need for much substance. For B1, in assay [1], the Kd was found to be 20.3 nM, the koff was determined as 0.000419 s⁻¹ and the association rate constant (kon) was 20700 M⁻¹ s⁻¹. In [2], this molecule registered an EC50 of 0.85 nM. Also, in assay [3], the Kd is 20.3 nM, the koff worked out at 0.000419 s⁻¹ and the association rate constant (kon) was 20700 M⁻¹ s⁻¹. In addition, in assay [4], the Kd is 15.2 nM, the koff is 0.000754 s⁻¹ and the on-rate constant (kon) is 49500 M⁻¹ s⁻¹.

B2: BGA-6582-F37V (VHH)
chain: EPKSSDKTHTCPPCPAPPAAGPSVFLFPPKPKDTLMISRTPEVTCVVVDVSHEDPEVKFNWYVDGVEVHNAKTKPREEQYNSTYRVVSVLTVLHQDWLNGKEYKCKVSNKALAAPIEKTISKAKGQPREPQVYTLPPSREEMTKNQVSLTCLVKGFYPSDIAVEWESNGQPENNYKTTPPVLDSDGSFFLYSKLTVDKSRWQQGNVFSCSVMHEALHNHYTQKSLSLSPGKGGGGSEVQLLESGGGLVQPGGSLRLSCAASGRTFDNYAVGWVRQAPGKERQYVGTYWSGYAHYGDFENNRFTISRDNSKNTVYLQMNSLRAEDTAVYYCAISLKYPMATVTPDYQGQGTLVTVSS
Turning to B2, in assay [5], the binding result is reported as “no binding”.

B3: BGA-6582-Y47W (VHH)
chain: B2 chain with V273F, Y283W
Take B3: the binding result in assay [5] is “no binding”.

B4: BGA-6582-E44G (VHH)
chain: B2 chain with V273F, E280G
As to B4, in assay [5], the Kd is 9.16 nM, the dissociation rate constant (koff) was 0.000242 s⁻¹ and the kon worked out at 26400 M⁻¹ s⁻¹.

B5: BGA-6582-R45L (VHH)
chain: B2 chain with V273F, R281L
In the case of B5, in [5], the dissociation constant (Kd) was determined as 14.8 nM, the off-rate constant (koff) stood at 0.000413 s⁻¹ and the association rate constant (kon) was found to be 27800 M⁻¹ s⁻¹.

B6: BGA-3726 (BGA-6582-Q46E) (VHH)
chain: B2 chain with V273F, Q282E
Turning to B6, in assay [5], the equilibrium dissociation constant (Kd) is 14.3 nM, the koff came to 0.000432 s⁻¹ and the association rate constant (kon) turned out to be 30200 M⁻¹ s⁻¹.

B7: BGA-6582 (humanized VHH from BGA-9612, Fc-VHH format) (VHH)
chain: B2 chain with V273F
With B7, in [1], the Kd is 27.7 nM, the off-rate (koff) came out at 0.000588 s⁻¹ and the kon worked out at 21200 M⁻¹ s⁻¹. Besides, in [5], the equilibrium dissociation constant (Kd) came to 13.6 nM, the koff stood at 0.000593 s⁻¹ and the kon was 43500 M⁻¹ s⁻¹. In assay [3], the dissociation constant (Kd) worked out at 27.7 nM, the dissociation rate constant (koff) was 0.000588 s⁻¹ and the kon was found to be 21200 M⁻¹ s⁻¹.

B8: BGA-6582-V78L (VHH)
chain: B2 chain with V273F, V313L
Turning to B8, in assay [5], the equilibrium dissociation constant (Kd) was found to be 13.6 nM, the koff worked out at 0.000593 s⁻¹ and the kon worked out at 43500 M⁻¹ s⁻¹.

B9: BGA-6582-G49S (VHH)
chain: B2 chain with V273F, G285S
Turning to B9, the binding result in assay [5] is recorded as “no binding”.

B10: BGA-7031 (humanized VHH, Fc-VHH format) (VHH)
chain: B2 chain with L241V, V273F, Q282E, S319N, A322P, L351Q
In the case of B10, in assay [2], the EC50 was found to be 0.88 nM. Moreover, in [4], the Kd stood at 11.7 nM, the koff came to 0.000719 s⁻¹ and the association rate constant (kon) was found to be 61600 M⁻¹ s⁻¹.

B11: BGA-6582-I94K (VHH)
chain: B2 chain with V273F, I332K
B11: in assay [5], the binding result is reported as “no binding”.

B12: BGA-3544 (humanized VHH, Fc-VHH format) (VHH)
chain: B2 chain with L241V, V273F, Q282E, N299K, N300G, S319N, A322P, L351Q
Take B12: the concentration giving a half-maximal response (EC50) in assay [2] amounted to 0.85 nM. In [4], the Kd amounted to 17.6 nM, the off-rate constant (koff) came out at 0.000999 s⁻¹ and the on-rate constant (kon) is 56900 M⁻¹ s⁻¹.

B13: BE-774 (anti-GPC3 x CD137 bispecific antibody, GPC3 antibody + VHH BGA-9612, IgG1mf Fc-YTE) (bispecific antibody)
heavy: QVQLVQSGAEVKKPGASVKVSCKASGYTFTDYEMHWVRQAPGQGLEWMGALDPKTGDTAYSQKFKGRVTLTADKSTSTAYMELSSLTSEDTAVYYCTRFYSYTYWGQGTLVTVSSASTKGPSVFPLAPSSKSTSGGTAALGCLVKDYFPEPVTVSWNSGALTSGVHTFPAVLQSSGLYSLSSVVTVPSSSLGTQTYICNVNHKPSNTKVDKKVEPKSCDKTHTCPPCPAPPAAGPSVFLFPPKPKDTLYITREPEVTCVVVDVSHEDPEVKFNWYVDGVEVHNAKTKPREEQYNSTYRVVSVLTVLHQDWLNGKEYKCKVSNKALAAPIEKTISKAKGQPREPQVYTLPPSREEMTKNQVSLTCLVKGFYPSDIAVEWESNGQPENNYKTTPPVLDSDGSFFLYSKLTVDKSRWQQGNVFSCSVMHEALHNHYTQKSLSLSPGKGGGGSEVQLVESGGGTVQPGDSLRLSCAASGRTFDNYAVGWFRQAPGKERQYVGTYWSGYAHYGDFENNRFTISRDNAKNTVYLQMDNLKPEDTAVYYCAISLKYPMATVTPDYQGQGTQVTVSS
light: DVVMTQSPLSLPVTPGEPASISCRSSQSLVHSNRNTYLHWYLQKPGQSPQLLIYKVSNRFSGVPDRFSGSGSGTDFTLKISRVEAEDVGVYYCSQNTHVPPTFGQGTKLEIKRTVAAPSVFIFPPSDEQLKSGTASVVCLLNNFYPREAKVQWKVDNALQSGNSQESVTEQDSKDSTYSLSSTLTLSKADYEKHKVYACEVTHQGLSSPVTKSFNRGEC
For B13, the EC50 stood at 0.9 nM in [6] and 0.7 nM in [7]. Also, the Kd in assay [8] was 1.01 nM; in [9], 0.529 nM. Moreover, the koff in [8] was 0.00022 s⁻¹; in [9], 0.000425 s⁻¹. The kon in assay [8] was found to be 218000 M⁻¹ s⁻¹; in [9], 804000 M⁻¹ s⁻¹.
